Measurements: the Immune Epitope Database (IEDB)

Key:
Test in all cases: IEDB peptide-MHC binding, purified MHC/competitive/radioactivity; filed as Kd, often an IC50 or EC50 that approximates it; ≥ and ≤ were set here for values at or beyond the usual limits of such assays
HLA-A*68:02 = biological target: HLA-A*68:02
HLA-A*02:03 = biological target: HLA-A*02:03
HLA-A*02:06 = biological target: HLA-A*02:06
HLA-A*02:01 = biological target: HLA-A*02:01
HLA-A*02:02 = biological target: HLA-A*02:02
[1] = source organism: Guanarito virus strain INH-95551
[2] = source organism: Lassa virus Josiah
[3] = source organism: Pichinde virus strain Munchique
[4] = source organism: Whitewater Arroyo virus strain AV9310135

Sequence GTTSLFLHL has a Kd (HLA-A*68:02; [1]) of 5 nM, a Kd (HLA-A*02:03; [1]) of 750 nM and a Kd (HLA-A*02:06; [1]) of 5 nM. For the same sequence, the Kd (HLA-A*02:01; [1]) was 49 nM and the Kd (HLA-A*02:02; [1]) was 57 nM.

Sequence YLISIFLHL has a Kd (HLA-A*02:03; [2]) of 11 nM, a Kd (HLA-A*02:06; [2]) of 10 nM and a Kd (HLA-A*02:02; [2]) of 173 nM.

Work on YTITVFLHL yielded a Kd (HLA-A*68:02; [3]) of 5 nM, a Kd (HLA-A*02:03; [3]) of 14800 nM and a Kd (HLA-A*02:06; [3]) of 7 nM. It also gave a Kd (HLA-A*02:01; [3]) of 10 nM and a Kd (HLA-A*02:02; [3]) of 128 nM.

In the case of YVSSIFLHL, the Kd (HLA-A*68:02; [4]) is reported as at most 1 nM, the Kd (HLA-A*02:03; [4]) is reported as 10 nM and the Kd (HLA-A*02:06; [4]) is reported as 15 nM. It also gave a Kd (HLA-A*02:02; [4]) of at most 1 nM.
